# Numbering of substitutions follows the chain as printed.
# Assays:
# [1] = tested on: human moDCs naturally expressing CCR7; experiment: 3D chemotaxis, time-lapse recording of human moDCs in Collagen I (chemotactic index); type: cell-based; conditions: human moDCs; for boosting of CCL21-induced DC chemotaxis: 10 nM CCL21, peptide 10 µM (0.1–10 µM in the dose series)
# Method: Buffy coats were obtained from Rigshospitalet Copenhagen, as anonymous material, with written informed consent from the donors. The local ethics committee at Faculty of Health and Medical Sciences at the University of Copenhagen (Research Ethics Committee for Sund and Science, University of Copenhagen) found the project exempt from approval. DCs were prepared from human peripheral blood mononuclear cells (PBMC) isolated from buffy coats by centrifugation on a Lymphoprep gradient as previously described. Briefly, monocytes were isolated by plastic adherence of PBMC. Adhered monocytes were subsequently cultured and differentiated into immature DCs by incubation with IL-4 (250 U/ml) and GM-CSF (1000 U/ml) for 6 days, followed by activation into mature DCs by incubation with IL-6 (1000 U/ml), IL-1β (1000 U/ml), TNF-α (1000 U/ml), and PGE2 (1 µg/ml) for an additional 2 days in the same medium.
# (§1) Human DCs were cultured in X-vivo 15 medium with 2% human AB serum and glutamine. CHO-K1 pgsB-618 ATCC® CRL2241™ [24] and CHO-K1 cells were grown in RPMI with 10% FBS and Penicillin/Streptomycin. HS^−/− (CHO EXTL 2/3 −/−), CS^−/− (CSGALNACT 1/2^−/− CHSY1^−/−), 5xKO (GalNAc-T1, 2, 4, 7 and 10 −/−) and WT CHO suspension cells were grown in suspension in 1:1 of EX-Cell CD CHO fusion media and Balanced CD CHO growth A medium supplemented with 2% glutamine and Penicillin/Streptomycin. Cells were kept in a humidified incubator at 37 °C, 5% CO2.
# Chemotaxis assays were conducted as previously described. Briefly, mature human moDCs were left to acclimatize in medium for 30 min at room temperature (RT) upon defrosting, before assay start. DCs were seeded in Bovine Collagen I mixture prepared by mixing 10 µl Na2HCO3 (7.5%), 20 µl MEM (10×), 150 µl PureCol and 90 µl DCs dissolved in X-vivo 15 medium (2 × 10^6 cells/ml). After incubation for 45 min in a humidified incubator at 37 °C (5% CO2), the source and sink reservoirs were filled according to the manufacturer’s instructions and chemotaxis was tracked in a time-lapse microscope with a humidified temperature controlled stage incubator for 12 h at a 2 min interval. Cell migration (approximately 20–40 cells per viewing field) was tracked using a commercial tracking program (Autozell) and subsequently analyzed to get a population-based chemotactic index (CI) value (MATLAB). CI is a measure of net translocation distance to the source relative to total distance traveled and was thus calculated as the ratio of the distance traveled in the direction of the gradient over the total distance traveled and therefore is a conservative measure of the directedness of cell migration.
# human CCR7 [2] = molecular target: T1, human CCR7 (Homo sapiens, UniProt P32248); experiment: Gαi signaling, BRET-based cAMP (CAMYEL) assay at CCR7 in CHO cells; type: cell-based; conditions: for boosting of CCL21-induced Gαi signaling: CCL21 + 10 µM peptide, BRET cAMP, n = 3–8
# T1 construct: CCR7 contains a 24-residue long signal peptide cleaved of from the mature protein; expressed in transfected cells; host or cells: CHO cells (CHO-K1, CHO suspension WT, GAG-deficient and 5xKO GalNAc-T knockout lines), transient transfection
# T1 sequence (P32248 25-378): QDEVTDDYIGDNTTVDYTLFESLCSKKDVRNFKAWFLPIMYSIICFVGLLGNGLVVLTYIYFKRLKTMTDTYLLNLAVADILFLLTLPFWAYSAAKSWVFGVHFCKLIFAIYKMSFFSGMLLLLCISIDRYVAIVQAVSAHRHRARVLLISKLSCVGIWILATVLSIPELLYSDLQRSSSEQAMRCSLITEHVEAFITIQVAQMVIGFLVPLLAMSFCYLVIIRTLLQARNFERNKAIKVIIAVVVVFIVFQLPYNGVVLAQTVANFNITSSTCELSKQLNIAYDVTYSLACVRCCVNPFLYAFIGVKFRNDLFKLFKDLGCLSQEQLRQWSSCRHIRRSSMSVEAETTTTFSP
# Method: as §1
# (§2) For cAMP assays, adherent CHO cells were transfected using lipofectamine while suspension cells were transfected using the FectoPro method. Cells were seeded in a 6-well plate, either 500,000 (adherent cells) or 200,000 (suspension cells) cells/well. The next day the cells were transiently transfected with vectors encoding the human CCR7 and CAMYEL sensor (cAMP sensor using YFP-Epac-RLuc) in a 1:5 ratio using lipofectamine (6 µl/well) or FectoPro (4 µl/well). Lipofectamine transfections were terminated by changing to 2 ml fresh cultivation medium after 5 h, while Fectopro transfection was terminated after 3 h by adding 2.5 ml fresh cultivation medium and 2 µl FectoPro Boost reagent per well. The cells were incubated under standard cultivation conditions overnight. For β-arrestin recruitment assays, cells were transfected with CCR7 and vectors expressing a Renilla luciferase arrestin3 fusion protein and membrane-SH3-citrine protein. The cells were then resuspended in PBS w/glucose and seeded in 96-well white iso plates (~ 25,000 cells/well). Coelenterazine (bioluminescence substrate) was added to a final conc. of 5 µM. After 10 min, cells were stimulated with varying ligand concentrations for a total of 40 min. Forskolin was added to each well 5 min after ligand addition to reach a final conc. of 5 µM. The plates were kept in the dark at all times. Emission signal from Rluc and eYFP was measured using the Envision machine at 530 and 480 nm and the BRET signal determined as the ratio between (eYFP/Rluc).
# CCR7 = conditions: allosteric antagonist, cytosolic site; cited from earlier work
# Source text: In the absence of peptide, CCL19 and CCL21 contact CCR7 in different manners. The interaction of CCL21 depends on residues in the top of TM-3, -4 and -5 that are not important for CCL19 interaction with CCR7. The binding of these two chemokines induce different structural changes in CCR7 to disrupt old and create new hydrogen bonds. CCL21 binding to CCR7 is believed to involve movements within the majority of helical domains (TM2, -3, -4, -5, -6, and -7), whereas the changes induced by CCL19 are restricted to regions of TM3, -5, and -6 [37]. The conformational changes in CCR7 ind ...
# human CCR7 [3] = molecular target: T1, human CCR7; experiment: β-arrestin recruitment, BRET-based assay at CCR7; type: cell-based; conditions: no peptide, n = 4
# Method: as §2
# [4] = molecular target: T2, CCR7^−O (CCR7 T37/38/42A) (Homo sapiens, UniProt P32248, T37A/T38A/T42A); experiment: Gαi signaling, BRET cAMP assay, CCR7 lacking N-terminal O-glycosylation sites; type: cell-based; conditions: no peptide, CCR7^−O vs WT CCR7
# T2 construct: CCR7 contains a 24-residue long signal peptide cleaved of from the mature protein; expressed in transfected cells; host or cells: CHO cells, transient transfection
# T2 sequence (P32248 25-378 T37A/T38A/T42A): T1 sequence (P32248 25-378) with T13A, T14A, T18A
# Method: O-glycosylation deficient CCR7 was generated from WT through Quick change PCR using the following primers: […]
# as §2
Compound,boosting of CCL21-induced DC chemotaxis [1],boosting of CCL21-induced Gαi signaling (human CCR7 [2]; CHO cells),other results
"TP91-111: C21TP reduced N-terminally by 20 aa (KKGKGSKGCKRTERSQTPKGP; UniProt O00585 114-134, looked up, fragment)",retaining boosting ability,retaining boosting ability,
"TP81-102: C-terminally truncated version of TP81-111 (RKDRGASKTGKKGKGSKGCKRT; UniProt O00585 104-125, looked up, fragment)",conserved boosting effects,conserved boosting effects,
"TP81-97: C-terminally truncated version of TP81-111 (RKDRGASKTGKKGKGSK; UniProt O00585 104-120, looked up, fragment)",blunted chemotaxis boosting ability,reduced signaling via cAMP,
"TP81-111: naturally occurring peptide generated upon plasmin cleavage of CCL21 (RKDRGASKTGKKGKGSKGCKRTERSQTPKGP; UniProt O00585 104-134, looked up, fragment)",at least to the same extent as TP71-111,boosted even more,
Cc1ccc(C(NC2=NS(=O)(=O)N=C2Nc2ccc(C)c(C(=O)N(C)C)c2O)C(C)(C)C)o1 (centres unmarked) [Cmp2105],,,competition with CCL19 binding to CCR7 (CCR7): outcompetes CCL19 binding to CCR7
"CCL19: endogenous chemokine, CCR7 ligand, from R&D Systems",,,"chemotaxis towards chemokine alone ([1]; 10 nM chemokine, no peptide): strong migratory signal; pEC50, β-arrestin recruitment, chemokine alone (human CCR7 [3]): 7.11; chemokine signaling in O-glycosylation-deficient 5xKO cells (human CCR7 [2]; CHO 5xKO vs WT, CCL21 alone, CCL19 in absence or presence of C21TP): only slightly impaired; pEC50, Gαi signaling, chemokine alone (human CCR7 [2]; no peptide, CHO cells, forskolin 5 µM, n = 4): 7.94; chemokine activity on its own at CCR7^−O [4]: without affecting basal CCR7 activation via CCL19 and CCL21"
